Substrate in this series: CC1=C(CO)C2=C(C)C3(CC3)[C@@](C)(O)C(=O)C2=C1
As to the kind of experiment: purified protein, by the assay type. The note with it: other: formation of Product 8; 37.0 °C.

For one protein, Km and Vmax results are on record in patent US7718385B2, “Bioactivation of alkylating agents for cancer treatment” (priority 2003, dated 2010).

B1: recombinant rat AOR (Rattus norvegicus; Q160G/Q263G/Q264G/Q276G) (protein)
chain: MVQAKTWTLKKHFEGFPTDSNFELRTTELPPLNNGEVLLEALFLSVDPYMRVAAKKLKEGDSMMGEQVARVVESKNSAFPTGTIVVALLGWTSHSISDGNGLRKLPAEWPDKLPLSLALGTVGMPGLTAYFGLLDICGLKGGETVLVNAAAGAVGSVVGGIAKLKGCKVVGTAGSDEKVAYLKKLGFDVAFNYKTVKSLEEALRTASPDGYDCYFDNVGGEFSNTVILQMKTFGRIAICGAISQYNRTGPCPPGPSPEVIIYGGLRMEGFIVTRWGGEVRQKALTDLMNWVSEGKIRYHEYITEGFEKMPAAFMGMLKGDNLGKTIVKA
As for B1, the Km came out at 145 µM and the Vmax turned out to be 0.275 µmol/min/mg.
